Experiment: yeast display, Sf9 membrane polyspecificity reagent, FACS + sequencing; frameworks hold sequencing errors
How it was run: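 After 36–48 hours of galactose induction, yeast (Saccharomyces cerevisiae BJ5465) displaying a synthetic nanobody library were stained at 4 °C for 1 hour with 10% biotinylated, detergent-solubilized Sf9 membrane reagent. Streptavidin microbeads enriched the stained cells before FACS sorting into low and high (top ~1%) gates on anti-HA and streptavidin fluorescence. Each clone's polyreactivity label reflects its gate of origin.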

| Sequence | polyreactivity (PSR sort gate) |
| --- | --- |
| QVQLVESGGGLVQAGGSLRLSCAASGFISRYYGMGWYRQAPGKERELVAAISWSGGRTHYADSVKGRFTISRDNAKNTVYLQMNSLKPEDTAVYYCATDRYYRPGGEYDYWGQGTQVTVSS | high polyreactivity |
| QVQLVESGGGLVQAGGSLRLSCAASGFISSHYAMGWYRPAPGKEWEVVATISSGGSTYADSVKGRFTISRDNAKNTVYLQMNSLKPEDTAVYYCAKRYYKSLNRDEFDSWGQGTQVTVSS | high polyreactivity |
| QVQLVESGGGLVQAGGSLRLSCAASGFISVRNAMGWYRQAPGKEREFVAAISGGGGSTYYADSVKGRFTISRDNAKNTVYLQMNSLKPEDTAVYYCNAPRYLYSAGRFNYWGQGTQVTVSS | high polyreactivity |
| QVQLVESGGGLVQAGGSLRLSCAASGFISYYYAMGWYRQAPGKERELVAAITKSGGSTYYADSVKGRFTIARDNAKNTVSLQMNSLKPEDTAVYYCAAVRSTRNSTSRLYGYWGQGTQVTVSS | low polyreactivity |
| QVQLVESGGGLVQAGGSLRLSCAASGFIVDTYAMGWYRQAPGKERELVAVISSSGGRTYYADSVKGRFTISRDNAKNTVYFQMNSLKPEDTAVYYCAARWYSGYGRFDYWGQGTQVTVSS | high polyreactivity |
| QVQLVESGGGLVQAGGSLRLSCAASGFIVSTKVMGWYRQAPGKERELVADINTGGSTSYADSVKGRFTNSRDNAKNTVYLQMNSLKPEDTAVYSCAAVLQYYYLSTDDPYDYWGQGTQVTVSS | low polyreactivity |
| QVQLVESGGGLVQAGGSLRLSCAASGFIYGGNPRGWYRQAPGKERELVAANRSGGSTYYADSVKGRFTISRDNAKNTVYLQMNILKPEDTAVYYCAVRLRYAYRARGNYWGQGTQVTVSS | low polyreactivity |
| QVQLVESGGGLVQAGGSLRLSCAASGFIYKFYAMGWYRQEPGKVRELVAAISDSGGSTYYADSVKGRFTISRDNAKNTVYLQMNSLKPEDTAVYYCNADWSWNNYYDFDYWGLGTQVTVSS | low polyreactivity |
| QVQLVESGGGLVQAGGSLRLSCAASGFIYSNNAMGWYRQAPGKERELVAAISASGSSTYYADSVKGRFTISRDNAKNTVYLQMNSLKPEDTAVYYCAAKSRTYQSYYYWGQGTQVTVSS | high polyreactivity |
| QVQLVESGGGLVQAGGSLRLSCAASGFIYSRYAMGWYRQAPRKEMDFFAAISRNGGSTYYADSVKGRITISRDNAKNTVYLQMNSLKPDDTAVYYCIAPYFVTSTYANTLGFDYWGQGTQVTVSS | high polyreactivity |
| QVQLVESGGGLVQAGGSLRLSCAASGFMFSRYAMGWYRQAAGTERELVAAITSSGGRTYYADSVKGRFTISRDNAKNTVYLQMTSLKPEDTAVYYCNADLGSWYTWFDYWGQGTQVTVSS | high polyreactivity |
| QVQLVESGGGLVQAGGSLRLSCAASGFNFPVNAMGWYRQAPGTERELVASITRSGGRTYYADSVKGRLTISRDNAKNTVYLQMNSLKPEDTAVYYCAARYLQEYVYEYDYWGQGTQVTVSS | high polyreactivity |
| QVQLVESGGGLVQAGGSLRLSCAASGFNFRANGMGWYRQAPGKERELVATITSGGTTNYADSVKGRFTITRDNAKNTVYLQMNSLKPEDTAVYYCAKRFVQAYFRLYDYWGQGTQVNVSS | low polyreactivity |
| QVQLVESGGGLVQAGGSLRLSCAASGFNFSYYAMGWYRQAPGKERELVAAINSGGVRTYYADSVKGRFTISRDNAKNTVYLQMNSLKPEDTAVYYCAARRHDSRYQYDYWGQGTQVTVSS | high polyreactivity |
| QVQLVESGGGLVQAGGSLRLSCAASGFNFSYYVMGWSRQAPGKERELVAAITKSGGSTYYADSVKGRFTISRDNAKNTVYLQMNSLKPEDTAVYYCAAVRGYRGYDYWGQGTQVTVSS | high polyreactivity |
| QVQLVESGGGLVQAGGSLRLSCAASGFNFTAYAMGWYRQAPGKERELVAAISSGGSTNYADSVKGRFTISRDNAKNSVYLQMNSLKPEDTAVYYCAALLRGIEYDYWGQGTQVTVSS | high polyreactivity |
| QVQLVESGGGLVQAGGSLRLSCAASGFNFYLNAMGWYRQAPGKERELVAAISSSGGITYYADSVKGRFTISRDNAKNTVYLQMNSLKPEDTADYSCAAYWPKYRYEAERDYWGQGTQVTVSS | low polyreactivity |
| QVQLVESGGGLVQAGGSLRLSCAASGFNYSQYAMGWYRQAPGKERELVAAITTTGGSTYYADSVKGRFTISRDNAKNTVYLQMNSLKPDDTAVYYCAARYVRTVRGGYWGQGTQVTVSS | high polyreactivity |
| QVQLVESGGGLVQAGGSLRLSCAASGFSFDSYALGWYRKAPGKERELVAAISRSGGSTYYADSVKGRFTISRDNAKNTVYLQMNSLKPEDTAVYYCARDRDSWGGHDSWGQGTQVTVSS | high polyreactivity |
| QVQLVESGGGLVQAGGSLRLSCAASGFSFFKYAMGWYRQAPGKERELVAAISSSGGSTYYADSVKGRFTISRDNAKKTVYLQMNSLKPEDTAVYYCAVDNLKCRAQSLDGFDYWGQGTQVTVSS | high polyreactivity |
| QVQLVESGGGLVQAGGSLRLSCAASGFSFGIYAMGWYRQAPGKERELVADITASGGSTYYADSVKGRFTISRDNAKNTVYLQMNSLKPEDTAVYYCAADGWWHNFYPGTGLDYWGQGTQVTVSS | low polyreactivity |
| QVQLVESGGGLVQAGGSLRLSCAASGFSFPYAMGGYRQAPGKERELVAGISWSGGSTYYADSVKGRFTISRDNAKNTVYLQMNSLKPEDTAVYNCNKYVQSGGTYDYWGQGTQVTVSS | low polyreactivity |

| Sequence | polyreactivity (PSR sort gate) |
| --- | --- |
| QVQLVESGGGLVQAGGSLRLSCAASGFSFQLYPMGWYRQAPWKERELVSAISQSGDSTYYADSVKGRFTISRDNAKNTVYLQMNSQKPEDNAVYYFNAVNDGVVWSYPFDFDYWGQGTQVTVSS | low polyreactivity |
| QVQLVESGGGLVQAGGSLRLSCAASGFSFYNYAMGWYRQAPGKERELVAAISWSGGSTHYADSVKGRFTISRDNAKNTVYLQMNSLKPEDTAVYYCAKVGVLGYYTYYYWGQGTQVTVSS | low polyreactivity |
| QVQLVESGGGLVQAGGSLRLSCAASGFTCKYYAMGWYRQAPGKERELVASINWSGGRTSYADSVKGRFTISRDNAKNTVYLQMNSLKREDTAVYYCARTPAGRGEYWGQGSQVTVSS | low polyreactivity |
| QVQLVESGGGLVQAGGSLRLSCAASGFTCSSNAMGWSRLAAGKERELVAAISSSGARTYYADSVKGRFTISRDNAKTTVYLQMNSLKPEDTAVYYCNARGLAGRKGYDYGGQGTQVTVSS | high polyreactivity |
| QVQLVESGGGLVQAGGSLRLSCAASGFTFAANTMGWYRQAPGKERELVADISGRGDRTSYADSVKGRFTISRDNAKNTVYLQMNSLKPEDTAVYYCAVDIYYYSNVHYYYWGQGTQVTVSS | low polyreactivity |
| QVQLVESGGGLVQAGGSLRLSCAASGFTFADYAMGWYRQAPGKEREWVAAISNGGSTTYADSVKGRFTSSRDNAKNTVYLQMNTLNPEDTAVYYCAAALSSYGWYAYGPWYGYWGQGTQVTVSS | high polyreactivity |
| QVQLVESGGGLVQAGGSLRLSCAASGFTFAFNDMGWYRQAPGKERELVAAITWSGGSTYYADSVKGRFTISRDNAKNTVYLQMNSLKPEDTAVYYCNADLLGYVYLNLPVGSWGQGTQVTVSS | low polyreactivity |
| QVQLVESGGGLVQAGGSLRLSCAASGFTFAFYAMGRYRQAPGKERELVAAISRRGGSTTYADSVKGRFTISRDNAKNTVYLQMNSLKPEDTAVYYCNAVSTRNPGPDYYYWGQGTQVTVSS | high polyreactivity |
| QVQLVESGGGLVQAGGSLRLSCAASGFTFAFYAMGWYRQAPGKERELVAAISKNDGTTYYADSVKGRFTISRHTAKNTVYLLMNSLKPEDTAVYYCAAESCYPVYTYVSSGDYWGQGTQVTVSS | low polyreactivity |
| QVQLVESGGGLVQAGGSLRLSCAASGFTFAFYTLGWYIQATGKETELVASISWRSGSTYYADSVKGRFTISRDNAKNSVYLQMNSLNPDDTAVYYCAADSAVSWFFYCGQGTQVTVSS | high polyreactivity |
| QVQLVESGGGLVQAGGSLRLSCAASGFTFAGYAMGWYRLAPGKVRELVAAISWRGGSTYYADSVKGRFTISRDNAKNTVYLQMNSLKPEDTAVYYCAAASRKRTSREPLDYWGQGTQVTVSS | high polyreactivity |
| QVQLVESGGGLVQAGGSLRLSCAASGFTFAGYAMGWYRQAPGKERELVAPINRGGSTYYADSVKGRFTISRDNAKNTVYLQMNSLKQEDTAVYYCADRQEPGWYPDVWWEYDYWGQGTQVTVSS | low polyreactivity |
| QVQLVESGGGLVQAGGSLRLSCAASGFTFALYAMGWYRQAPGKEREFVAAITRSGGITYYADSVKGRFTFSRDNAKNTVYLQINSLKPEDTAVYYCAAVPRWSVYRAYGYWGQGTQVTVSS | high polyreactivity |
| QVQLVESGGGLVQAGGSLRLSCAASGFTFALYAMGWYRQAPGKERELVASIDNGVSTNYADSVKGRFTISRDNAKNTVYLQMTSLKPEDTAVYYCAKGPGYGLYKLLSYDSWGQGTQVTVSS | low polyreactivity |
| QVQLVESGGGLVQAGGSLRLSCAASGFTFANNAMGWYRQAPGKERELVAAISWNGGSTFYADSVKGRFTISRDNAKNTVYLQMNSLKPEDTAVYYCNTVASYYRWKSYYYWGQGTQVTVSS | high polyreactivity |
| QVQLVESGGGLVQAGGSLRLSCAASGFTFAPNAMGWYRQAPGKERELVAAISSASSTYYADSVKGRFTISRDNAKNTVYLQMNSLKPEETAVYYCAAKSSTKQRKYYWGQGTQVTVSS | high polyreactivity |
| QVQLVESGGGLVQAGGSLRLSCAASGFTFARYAMGWYRQAPGKERELVAAINWSGGRTYYADSVKGRFTISRDNAKNTVYLQMNSLKPEDTAVYYCNAWGLVYYSSGYDYWGQGTQVTVSS | high polyreactivity |
| QVQLVESGGGLVQAGGSLRLSCAASGFTFARYAMGWYRQAPGKERELVAAISRGTTTYYADSVKGRFTISRDNAKNTVYLQMNILKPDDTAVYYCAAVTTRTYPGRYYYWGQGTQVTVSS | high polyreactivity |
| QVQLVESGGGLVQAGGSLRLSCAASGFTFASNAMGWYRPAPWKERELVAGISRTGTTTYYADSVKGRFTISRDNAKNTVYLQMNSLKPEDTAVYYCAASKQAVKYRSQRYYYWGQGTQVTVSS | high polyreactivity |
| QVQLVESGGGLVQAGGSLRLSCAASGFTFASNVMGWYRQAPGKERELVAAITSGASTNYADSVKGRFTISRDNAKNTVYLQMNSLKPEDTAVYYCAAGRQWYVFYEFDYWGQGTQVTVSS | high polyreactivity |
| QVQLVESGGGLVQAGGSLRLSCAASGFTFATYAMGWYRQAPGKERELVAAITYRGGRTYYADSVKGRFTISRDNAKNTVYLQMNSLKPEDTAVYYCNTVYPRRLIFGYWGQGTQVTVSS | high polyreactivity |
